Reference: publication PMC4695161, “Multifaceted interactions and regulation between antizyme and its interacting proteins cyclin D1, ornithine decarboxylase and antizyme inhibitor” (Oncotarget, 2015)

B1: human antizyme (AZ), wild type (natural protein)
chain: not shown
notes: antizyme (AZ), human; Natural AZ needs a +1 frameshift for translation; also called AZWT; full-length AZ; source: E. coli JM109 (pQE30), purified (Ni-NTA)

Assays:
Details in all cases: both partners purified
human cyclin D1 (CCND1) = biological target: T1, human cyclin D1 (CCND1) (human, UniProt P24385 1-295); test: AUC; sedimentation velocity; AZ or AZ peptide at a fixed concentration, three concentrations of CCND1; 30 mM Tris-HCl pH 7.4, 50 mM NaCl; global fit (SEDPHAT) to A+B↔AB hetero-association
T1 construct: cyclin D1 (CCND1), human; source: E. coli JM109 (pQE30), purified (Ni-NTA)
T1 sequence (P24385 whole entry): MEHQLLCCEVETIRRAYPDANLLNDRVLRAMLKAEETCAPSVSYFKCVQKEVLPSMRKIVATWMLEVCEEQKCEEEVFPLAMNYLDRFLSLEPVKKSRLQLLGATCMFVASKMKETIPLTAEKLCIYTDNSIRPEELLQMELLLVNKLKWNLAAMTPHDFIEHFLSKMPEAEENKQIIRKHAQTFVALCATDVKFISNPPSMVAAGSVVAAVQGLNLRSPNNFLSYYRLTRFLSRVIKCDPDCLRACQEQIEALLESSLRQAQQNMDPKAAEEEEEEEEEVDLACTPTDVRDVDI

[1] = biological target: B1; test: AUC; sedimentation velocity, size distribution of mixtures at molar ratio AZ/CCND1 of 1; 30 mM Tris-HCl pH 7.4, 50 mM NaCl, 20°C; no constant fitted
[2] = biological target: T2, pre-formed AZ-CCND1 complex (human, UniProt P54368 1-228; P24385 1-295); test: AUC; sedimentation velocity; AZ pre-incubated 1 hour with ODC (or CCND1) at molar ratio 1, then the third protein (CCND1 or ODC) at varied concentration; 30 mM Tris-HCl pH 7.4, 50 mM NaCl, 20°C
T2 construct: antizyme (AZ), human, as m1; cyclin D1 (CCND1), human, as m2; Molar ratio AZ/CCND1 fixed at 1; also called CCND1-AZ complex; source: AZ pre-incubated with CCND1 for 1 hour (purified recombinant proteins)
T2 sequence (P54368 whole entry, chain 1 of 2): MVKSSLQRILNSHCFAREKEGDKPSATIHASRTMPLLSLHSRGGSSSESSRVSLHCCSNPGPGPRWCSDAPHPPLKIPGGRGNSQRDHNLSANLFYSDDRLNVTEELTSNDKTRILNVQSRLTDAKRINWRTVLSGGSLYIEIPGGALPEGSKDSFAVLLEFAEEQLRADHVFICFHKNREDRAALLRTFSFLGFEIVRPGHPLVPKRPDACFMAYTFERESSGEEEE
T2 sequence (P24385 whole entry, chain 2 of 2): as the sequence (P24385 whole entry) above

Binder | Kd (human cyclin D1 (CCND1)) | other results
N-terminal AZ peptide AZ(34-124) (domain or fragment, also called AZ N-terminal peptide; source: truncated by deletion mutagenesis of the human AZ plasmid) not shown | 870 ± 10 nM | 
B1 | 810 ± 20 nM | 
N-terminal CCND1 peptide CCND1(21-154) (domain or fragment, human, UniProt P24385 21-154, looked up, source: truncated by deletion mutagenesis of the human CCND1 plasmid) NLLNDRVLRAMLKAEETCAPSVSYFKCVQKEVLPSMRKIVATWMLEVCEEQKCEEEVFPLAMNYLDRFLSLEPVKKSRLQLLGATCMFVASKMKETIPLTAEKLCIYTDNSIRPEELLQMELLLVNKLKWNLAA |  | binding result [1]: binds
human ornithine decarboxylase (ODC) (enzyme, UniProt P11926 1-461, looked up, ornithine decarboxylase (ODC), human; source: purified recombinant; expression not described) MNNFGNEEFDCHFLDEGFTAKDILDQKINEVSSSDDKDAFYVADLGDILKKHLRWLKALPRVTPFYAVKCNDSKAIVKTLAATGTGFDCASKTEIQLVQSLGVPPERIIYANPCKQVSQIKYAANNGVQMMTFDSEVELMKVARAHPKAKLVLRIATDDSKAVCRLSVKFGATLRTSRLLLERAKELNIDVVGVSFHVGSGCTDPETFVQAISDARCVFDMGAEVGFSMYLLDIGGGFPGSEDVKLKFEEITGVINPALDKYFPSDSGVRIIAEPGRYYVASAFTLAVNIIAKKIVLKEQTGSDDEDESSEQTFMYYVNDGVYGSFNCILYDHAHVKPLLQKRPKPDEKYYSSSIWGPTCDGLDRIVERCDLPEMHVGDWMLFENMGAYTVAAASTFNGFQRPTIYYVMSGPAWQLMQQFQNPDFPPEVEEQDASTLPVSCAWESGMKRHRAACASASINV |  | Kd [2]: 1260 ± 20 nM
